Data on 22 molecules can be found in US20230002460A1 (YUHAN, published 2023).

For experiment [1], the target named is T1, GDF15 receptors GFRAL and RET, overexpressed together on HEK293 cells (UniProt Q6UXV0 19-394; P07949 29-1114, limits assumed). Kind of experiment: cell-based or functional assay.
In experiment [2] the target is T1, GDF15 receptors GFRAL and RET, …. The experiment in a line: cell-based or functional assay. The source holds these as a separate data set.

Where a chain is given by its changes, count along the chain named. In names and notes the source's numbering stands. Where two headings read alike, the source gives them in different places.

T1 sequence (Q6UXV0 19-394 limits assumed, chain 1 of 2): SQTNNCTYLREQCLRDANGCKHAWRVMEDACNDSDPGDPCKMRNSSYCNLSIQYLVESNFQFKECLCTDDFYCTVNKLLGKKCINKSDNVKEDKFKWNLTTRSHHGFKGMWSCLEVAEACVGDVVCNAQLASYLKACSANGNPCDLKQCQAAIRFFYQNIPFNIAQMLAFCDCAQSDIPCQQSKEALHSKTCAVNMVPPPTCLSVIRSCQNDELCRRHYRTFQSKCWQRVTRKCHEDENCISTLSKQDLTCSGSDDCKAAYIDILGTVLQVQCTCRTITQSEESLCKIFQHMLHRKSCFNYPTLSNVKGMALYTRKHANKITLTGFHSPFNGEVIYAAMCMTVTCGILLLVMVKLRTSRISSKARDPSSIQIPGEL
T1 sequence (P07949 29-1114 limits assumed, chain 2 of 2): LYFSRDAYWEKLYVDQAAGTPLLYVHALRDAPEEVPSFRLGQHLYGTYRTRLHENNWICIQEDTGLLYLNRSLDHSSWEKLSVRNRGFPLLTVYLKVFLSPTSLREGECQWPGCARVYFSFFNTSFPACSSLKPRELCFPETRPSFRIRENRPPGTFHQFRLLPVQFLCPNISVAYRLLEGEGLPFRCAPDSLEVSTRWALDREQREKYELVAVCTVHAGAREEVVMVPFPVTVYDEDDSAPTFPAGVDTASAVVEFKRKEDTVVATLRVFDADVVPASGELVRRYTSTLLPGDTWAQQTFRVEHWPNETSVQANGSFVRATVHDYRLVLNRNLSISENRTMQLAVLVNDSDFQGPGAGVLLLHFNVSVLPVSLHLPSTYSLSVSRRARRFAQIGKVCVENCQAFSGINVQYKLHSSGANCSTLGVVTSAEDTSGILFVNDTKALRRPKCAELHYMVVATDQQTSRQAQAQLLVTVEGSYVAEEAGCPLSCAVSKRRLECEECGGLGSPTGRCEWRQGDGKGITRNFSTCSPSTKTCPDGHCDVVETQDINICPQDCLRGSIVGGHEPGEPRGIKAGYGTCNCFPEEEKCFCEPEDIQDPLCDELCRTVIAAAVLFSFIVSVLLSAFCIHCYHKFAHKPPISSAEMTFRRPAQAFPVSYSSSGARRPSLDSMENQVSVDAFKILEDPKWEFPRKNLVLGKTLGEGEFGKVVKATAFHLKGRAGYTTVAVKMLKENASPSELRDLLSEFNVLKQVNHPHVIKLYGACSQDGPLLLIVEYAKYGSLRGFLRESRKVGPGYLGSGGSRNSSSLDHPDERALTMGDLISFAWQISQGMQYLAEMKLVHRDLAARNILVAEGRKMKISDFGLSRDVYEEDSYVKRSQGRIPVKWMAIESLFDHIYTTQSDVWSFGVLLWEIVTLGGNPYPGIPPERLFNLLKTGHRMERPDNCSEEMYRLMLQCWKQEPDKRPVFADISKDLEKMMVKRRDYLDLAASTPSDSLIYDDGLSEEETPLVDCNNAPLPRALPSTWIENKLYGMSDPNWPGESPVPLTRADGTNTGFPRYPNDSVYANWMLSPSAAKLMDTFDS

B1: long-acting GDF15 fusion protein ΔN2, Q51H (Fc fusion)
chain 1: APALAGGPSVFLFPPKPKDTLMISRTPEVTCVVVDVSHEDPEVKFNWYVDGVEVHNAKTKPREEQYNSTYRVVSVLTVLHQDWLNGKEYKCKVSNKALPAPIEKTISKAKGQPREPQVYTLPPSREEMTKNQVSLWCLVKGFYPSDIAVEWESNGQPENNYKTTPPVLDSDGSFFLYSKLTVDKSRWQQGNVFSCSVMHEALHNHYTQKSLSLSPGKGGGGSGGGGSGGGGSGGGGSGGGGSNGDHCPLGPGRCCRLHTVRASLEDLGWADWVLSPREVQVTMCIGACPSHFRAANMHAQIKTSLHRLKPDTVPAPCCVPASYNPMVLIQKTDTGVSLQTYDDLLAKDCHCI
chain 2: not shown
As to B1, in experiment [1], the “EC50” value is 24.1 nM and the “Emax (%) [relative to FWT 100%]” value amounted to 90.8%.

B2: long-acting GDF15 fusion protein ΔN2, D93L (Fc fusion)
chain 1: B1 chain 1 with H291Q, D333L
chain 2: not shown
Consider B2, for which, in experiment [1], a half-maximal response (EC50) required 9 nM and the “Emax (%) [relative to FWT 100%]” value is 59.1%.

B3: long-acting GDF15 fusion protein ΔN2, S97N (Fc fusion)
chain 1: B1 chain 1 with H291Q, S337N
chain 2: not shown
As to B3, in experiment [1], the “EC50” value amounted to 5.6 nM and the “Emax (%) [relative to FWT 100%]” value was determined as 100%.

B4: long-acting GDF15 fusion protein ΔN2, Y101Q (Fc fusion)
chain 1: B1 chain 1 with H291Q, Y341Q
chain 2: not shown
On to B4, for which, in experiment [1], the “EC50” value worked out at 12.9 nM and the “Emax (%) [relative to FWT 100%]” value was 16.3%.

B5: long-acting GDF15 fusion protein ΔN2, T92E (Fc fusion)
chain 1: B1 chain 1 with H291Q, T332E
chain 2: not shown
Consider B5, for which, in experiment [1], the “EC50” value is 1.1 nM and the “Emax (%) [relative to FWT 100%]” value is 12.3%.

B6: long-acting GDF15 fusion protein ΔN2, Q60L (Fc fusion)
chain 1: B1 chain 1 with H291Q, Q300L
chain 2: not shown
For B6, in experiment [1], the “EC50” value worked out at 11.9 nM and the “Emax (%) [relative to FWT 100%]” value came out at 96.3%.

B7: long-acting GDF15 fusion protein ΔN2, D93E (Fc fusion)
chain 1: B1 chain 1 with H291Q, D333E
chain 2: not shown
For the molecule B7, in experiment [1], the “EC50” value was found to be 6.5 nM and the “Emax (%) [relative to FWT 100%]” value came out at 87.6%.

B8: long-acting GDF15 fusion protein ΔN2, S64Q (Fc fusion)
chain 1: B1 chain 1 with H291Q, S304Q
chain 2: not shown
Regarding B8, in experiment [1], the “EC50” value was found to be 7.9 nM and the “Emax (%) [relative to FWT 100%]” value came out at 100%.

B9: long-acting GDF15 fusion protein ΔN2, Q60N (Fc fusion)
chain 1: B1 chain 1 with H291Q, Q300N
chain 2: not shown
With B9, in experiment [1], the concentration for a half-maximal effect (EC50) was 7 nM and the “Emax (%) [relative to FWT 100%]” value came to 43.5%.

B10: long-acting GDF15 fusion protein ΔN2, Q51E (Fc fusion)
chain 1: B1 chain 1 with H291E
chain 2: not shown
Consider B10, for which, in experiment [1], a half-maximal response (EC50) required 44.2 nM and the “Emax (%) [relative to FWT 100%]” value worked out at 41.9%.

B11: long-acting GDF15 fusion protein ΔN2, Q90E (Fc fusion)
chain 1: B1 chain 1 with H291Q, Q330E
chain 2: not shown
For the molecule B11, in experiment [1], it took 9.3 nM to reach a half-maximal effect (EC50) and the “Emax (%) [relative to FWT 100%]” value turned out to be 10.5%.

B12: long-acting GDF15 fusion protein ΔN2, Q90H (Fc fusion)
chain 1: B1 chain 1 with H291Q, Q330H
chain 2: not shown
Regarding B12, in experiment [1], the response was half-maximal at 43.4 nM (EC50) and the “Emax (%) [relative to FWT 100%]” value amounted to 73.2%.

B13: long-acting GDF15 fusion protein ΔN2, W32F (Fc fusion)
chain 1: B1 chain 1 with W272F, H291Q
chain 2: not shown
As for B13, in experiment [1], the response was half-maximal at 19.4 nM (EC50) and the “Emax (%) [relative to FWT 100%]” value came out at 51.3%.

B14: long-acting GDF15 fusion protein ΔN2, S97Q (Fc fusion)
chain 1: B1 chain 1 with H291Q, S337Q
chain 2: not shown
For the molecule B14, in experiment [1], the “EC50” value amounted to 9.2 nM and the “Emax (%) [relative to FWT 100%]” value came out at 118%.

B15: long-acting GDF15 fusion protein ΔN2, Q51L (Fc fusion)
chain 1: B1 chain 1 with H291L
chain 2: not shown
As to B15, in experiment [1], a half-maximal effect (EC50) was put at 15.2 nM and the “Emax (%) [relative to FWT 100%]” value is 88.6%.

B16: long-acting GDF15 fusion protein ΔN2, D93N (Fc fusion)
chain 1: B1 chain 1 with H291Q, D333N
chain 2: not shown
Regarding B16, in experiment [1], a half-maximal response (EC50) required 22.6 nM and the “Emax (%) [relative to FWT 100%]” value stood at 99.6%.

B17: long-acting GDF15 fusion protein ΔN2, Q51N (Fc fusion)
chain 1: B1 chain 1 with H291N
chain 2: not shown
On to B17, for which, in experiment [1], the “EC50” value worked out at 14.2 nM and the “Emax (%) [relative to FWT 100%]” value came out at 87.8%.

B18: long-acting GDF15 fusion protein ΔN2, T92S (Fc fusion)
chain 1: B1 chain 1 with H291Q, T332S
chain 2: not shown
Turning to B18, in experiment [1], the “EC50” value was found to be 14.9 nM and the “Emax (%) [relative to FWT 100%]” value was 112%.

B19: long-acting GDF15 fusion protein ΔN2, Y101F (Fc fusion)
chain 1: B1 chain 1 with H291Q, Y341F
chain 2: not shown
Take B19: in experiment [1], the “EC50” value turned out to be 31.8 nM and the “Emax (%) [relative to FWT 100%]” value worked out at 37.5%.

B20: long-acting GDF15 fusion protein (dimer) FM5 + Fc_hole (ΔN2, S64K) (Fc fusion)
chain 1: B1 chain 1 with H291Q, S304K
chain 2: not shown
With B20, in experiment [1], the “EC50” value worked out at 7.7 nM and the “Emax (%) [relative to FWT 100%]” value came out at 147%.

B21: long-acting GDF15 fusion protein (dimer) FM11-1 + Fc_hole (ΔN3, G4N, D5S, H6T, S64R; linker GS(G4S)3) (Fc fusion)
chain 1: APEAAGGPSVFLFPPKPKDTLMISRTPEVTCVVVDVSHEDPEVKFNWYVDGVEVHNAKTKPREEQYASTYRVVSVLTVLHQDWLNGKEYKCKVSNKALPAPIEKTISKAKGQPREPQVYTLPPSREEMTKNQVSLWCLVKGFYPSDIAVEWESNGQPENNYKTTPPVLDSDGSFFLYSKLTVDKSRWQQGNVFSCSVMHEALHNHYTQKSLSLSPGKGSGGGGSGGGGSGGGGSNSTCPLGPGRCCRLHTVRASLEDLGWADWVLSPREVQVTMCIGACPSQFRAANMHAQIKTRLHRLKPDTVPAPCCVPASYNPMVLIQKTDTGVSLQTYDDLLAKDCHCI
chain 2: APEAAGGPSVFLFPPKPKDTLMISRTPEVTCVVVDVSHEDPEVKFNWYVDGVEVHNAKTKPREEQYASTYRVVSVLTVLHQDWLNGKEYKCKVSNKALPAPIEKTISKAKGQPREPQVYTLPPSREEMTKNQVSLSCAVKGFYPSDIAVEWESNGQPENNYKTTPPVLDSDGSFFLVSKLTVDKSRWQQGNVFSCSVMHEALHNHYTQKSLSLSPGK
Take B21: in experiment [2], the 50% effective concentration (EC50) was 9.7 nM and the “Emax (%)” value was 65.6%.

B22: long-acting GDF15 fusion protein (dimer) FM11-2 + Fc_hole (ΔN3, G4N, D5S, H6T, S64R; linker GS(G4S)5) (Fc fusion)
chain 1: APEAAGGPSVFLFPPKPKDTLMISRTPEVTCVVVDVSHEDPEVKFNWYVDGVEVHNAKTKPREEQYASTYRVVSVLTVLHQDWLNGKEYKCKVSNKALPAPIEKTISKAKGQPREPQVYTLPPSREEMTKNQVSLWCLVKGFYPSDIAVEWESNGQPENNYKTTPPVLDSDGSFFLYSKLTVDKSRWQQGNVFSCSVMHEALHNHYTQKSLSLSPGKGSGGGGSGGGGSGGGGSGGGGSGGGGSNSTCPLGPGRCCRLHTVRASLEDLGWADWVLSPREVQVTMCIGACPSQFRAANMHAQIKTRLHRLKPDTVPAPCCVPASYNPMVLIQKTDTGVSLQTYDDLLAKDCHCI
chain 2: B21 chain 2
For the molecule B22, in experiment [2], the concentration giving a half-maximal response (EC50) was determined as 7.7 nM and the “Emax (%)” value worked out at 79.4%.
